# Assay results as given in US20170354706A1, “HYBRID PROTEINACEOUS MOLECULE CAPABLE OF INHIBITING AT LEAST ONE ANTIBIOTIC AND PHARMACEUTICAL COMPOSITION CONTAINING IT” (priority 2014, published 2017).
# Where two headings read alike, the source gives them in different places.
# Experiments:
# E. coli BL21(DE3)pLysS [1] = test: MICs of beta-lactams on LB-agar for E. coli expression strains (Example 4); type: cell-based, Escherichia coli; conditions: Table 10; for MIC of the antibiotic for the empty strain BL21(DE3)pLysS: no recombinant protein; for MIC of Amoxicillin for E. coli strain expressing the protein / MIC of Augmentin for E. coli strain expressing the protein / MIC of Rocephine for E. coli strain expressing the protein: BL21(DE3)pLysS + protein, IPTG induced, LB-agar, 37° C. overnight
# Procedure: The pre-cultures are then inoculated at 1/40th in 5 ml of LB+50 μg/ml Kanamycin medium and when the OD600 reaches a value of 0.6 (about 2 hours), the production of protein is induced by the addition of final IPTG 1 mM and continues for 1.5 hours at 37° C. with stirring at 200 rpm.
# The dishes were incubated at 37° C. overnight and the results were recorded the following day. The MICs correspond to the lowest concentration of antibiotic at which the highest inoculum doesn't grow.
# E. coli BL21(DE3)pLysS [2] = test: MICs of beta-lactams and macrolide on LB-agar for E. coli expression strains (Example 6); type: cell-based, Escherichia coli; conditions: Table 14
# Procedure: The pre-cultures are then inoculated at 1/40th in 5 ml of LB+50 μg/ml Kanamycin medium and when the OD600 nm reaches a value of 0.6 (about 2 hours), the production of protein is induced by the addition of 1 mM final IPTG and continued for 1.5 hours at 37° C. with stirring at 200 rpm.
# The dishes are incubated at 37° C. over night and the results are recorded the next day. The MICs correspond to the lowest concentration of antibiotic at which the highest inoculum no longer grows.
# [3] = cited from earlier work
# [4] = pH-STAT beta-lactam hydrolysis assay, substrate amoxicillin; type: biochemical; conditions: 37° C., pH=7.0
# Procedure: (§1) The purified proteins were tested on different beta-lactams (amoxicillin (Apollo Scientific), Augmentin® (GlaxoSmithKline) and Ceftriaxone (Rocéphine®, Roche)). The assays are carried out at pH-STAT (Titrino 2.5, Metrohm) in a reaction volume of 25 ml at 37° C. and pH=7.0. The substrates are prepared at 4 g/l in a 0.3 mM Tris buffer, 150 mM NaCl. The enzyme hydrolysis of the beta-lactam nuclei releases an acid and induces a drop in the pH. The principle of the assay is to compensate for the acidification by the addition of 0.1 N sodium hydroxide so as to remain at pH=7.0. In these conditions, one unit corresponds to 1 μmole of sodium hydroxide added per minute, that is, one μmole of beta-lactam hydrolysed per minute. Table 3 below lists the specific activities measured for each protein on the three substrates (mean of 6 replicates).
# [5] = pH-STAT beta-lactam hydrolysis assay, substrate Augmentin; type: biochemical; conditions: 37° C., pH=7.0
# Procedure: as §1
# [6] = pH-STAT beta-lactam hydrolysis assay, substrate ceftriaxone; type: biochemical; conditions: pH=7.0; for Specific activity, substrate Ceftriaxone: 37° C.
# Procedure: as §1
# The purified proteins were tested on different antibiotics: Ceftriaxone (RocéphineED, Roche) for the beta-lactams and kanamycin for the Aminoglycosides. The assays on ceftriaxone were carried out at pH-STAT (Titrino 2.5, Metrohm) in a reaction volume of 25 ml at 37° C. and pH=7.0. The substrates are prepared at 4 g/l in a 0.3 mM Tris buffer, 150 mM NaCl. The enzyme hydrolysis of the beta-lactam nuclei releases an acid and results in a drop in the pH. The principle of the assay is to compensate this acidification by the addition of 0.1 N sodium hydroxide so as to remain at pH=7.0. In these conditions, one unit corresponds to 1 μmol of sodium hydroxide added per minute, that is one μmol of beta-lactam hydrolyzed per minute.
# [7] = Acetyl-transferase indirect colorimetric assay (acetyl-CoA, DTNB); type: biochemical; conditions: Table 12; 500 μM Kanamycin, 500 μM AcetylCoA, 250 μM DTNB; 1 unit = one nanomole of TNB released per minute at 37° C.; n=6
# Procedure: The activity of acety-transferase is measured by an indirect colorimetric assay with acetyl-CoA (Sigma-Aldrich) as acetyl group donor, Kanamycin as acceptor and Elleman reagent (DTNB, Sigma-Aldrich) to titrate the CoEnzymeA reduced (—SH) molecules released during the enzyme reaction [Ref]. The reaction takes place on a microtitration plate with increasing quantities of purified enzymes, in a final volume of 200 μl and with concentrations of 500 μM Kanamycin, 500 μM AcetylCoA and 250 μM DTNB. In these experimental conditions, the ion TNB^2 absorbs at 412 nm with an ε(λ=412 nm) apparent 19 000 M^−1.well^−1 (well of a 96 well plate filled with 200 μl) and 1 unit corresponds to one nanomole of TNB^2 released per minute at 37° C.
# [8] = Table 3, proteins produced in Pichia pastoris, substrate 4 g/l, 1 U = 1 μmole beta-lactam hydrolysed per minute, mean of 6 replicates
# [9] = Table 5 (Example 2), proteins produced in Pichia pastoris
# [10] = Table 7 (Example 3), proteins produced in Pichia pastoris
# [11] = Table 9, proteins produced in Escherichia coli BL21(DE3) pLysS (periplasm, non-glycosylated)
# [12] = Table 3, proteins produced in Pichia pastoris, substrate 4 g/l, mean of 6 replicates
# [13] = Table 9, proteins produced in Escherichia coli BL21(DE3) pLysS
# [14] = BL21(DE3)pLysS + protein, IPTG induced, LB-agar, 37° C. over night
Molecule,"Specific activity, substrate Amoxicillin [4, 8] [U/mg]","Specific activity, substrate Amoxicillin [4, 9] [U/mg]","Specific activity, substrate Amoxicillin [4, 10] [U/mg]","Specific activity, substrate Amoxicillin [4, 11] [U/mg]","Specific activity, substrate Augmentin [5, 12] [U/mg]","Specific activity, substrate Augmentin [5, 9] [U/mg]","Specific activity, substrate Augmentin [5, 10] [U/mg]","Specific activity, substrate Augmentin [5, 13] [U/mg]","Specific activity, substrate Ceftriaxone [6, 12] [U/mg]","Specific activity, substrate Ceftriaxone [6, 9] [U/mg]","Specific activity, substrate Ceftriaxone [6, 10] [U/mg]","Specific activity, substrate Ceftriaxone [6, 13] [U/mg]",other results
"CC1(C)S[C@@H]2[C@H](NC(=O)[C@H](N)c3ccc(O)cc3)C(=O)N2[C@H]1C(=O)O [Amoxicillin, amoxicillin, reference compound]",,,,,,,,,,,,,"MIC of the antibiotic for the empty strain BL21(DE3)pLysS (E. coli BL21(DE3)pLysS [1]): <0.5 μg/ml; MIC of the antibiotic for the empty strain BL21(DE3)pLysS (E. coli BL21(DE3)pLysS [2]; empty strain, no recombinant protein): <2 μg/ml; Patients with acute diarrhoea induced by antibiotics ([3]; patients receiving antibiotic therapy): 5-10%"
"CO/N=C(\C(=O)N[C@@H]1C(=O)N2C(C(=O)O)=C(CSc3nc(=O)c(O)nn3C)CS[C@H]12)c1csc(N)n1 [Rocephine, Ceftriaxone, reference compound]",,,,,,,,,,,,,MIC of the antibiotic for the empty strain BL21(DE3)pLysS (E. coli BL21(DE3)pLysS [1]): <0.5 μg/ml
CC[C@H]1OC(=O)[C@H](C)[C@@H](O[C@H]2C[C@@](C)(OC)[C@@H](O)[C@H](C)O2)[C@H](C)[C@@H](O[C@@H]2O[C@H](C)C[C@H](N(C)C)[C@H]2O)[C@](C)(O)C[C@@H](C)CN(C)[C@H](C)[C@@H](O)[C@]1(C)O [azithromycin],,,,,,,,,,,,,"Patients with acute diarrhoea induced by antibiotics ([3]; human, in vivo): 2-5%"
"CTX-M16: SEQ ID 2; class A β-lactamase (cefotaximase), Genbank AAK32961, 263 aa; constituent enzyme (protein, listed as Escherichia coli) QTSAVQQKLAALEKSSGGRLGVALIDTADNTQVLYRGDERFPMCSTSKVMAAAAVLKQSETQKQLLNQPVEIKPADLVNYNPIAEKHVNGTMTLAELSAAALQYSDNTAMNKLIAQLGGPGGVTAFARAIGDETFRLDRTEPTLNTAIPGDPRDTTTPRAMAQTLRQLTLGHALGETQRAQLVTWLKGNTTGAASIRAGLPTSWTAGDKTGSGGYGTTNDIAVIWPQGRAPLVLVTYFTQPQQNAESRRDVLASAARIIAEGL",31 ± 2,31 ± 2,31 ± 2,21 ± 1,0,0,0,0,306 ± 44,306 ± 44,306 ± 44,158 ± 14,"Specific activity, substrate Cetriaxone ([6]; Table 12, pH-STAT 37° C., AAC and fusion from E. coli, CTX-M16 from P. pastoris, n=6): 336 ± 5 U/mg; Specific activity, substrate Kanamycin [7]: 0 U/mg; MIC of Amoxicillin for E. coli strain expressing the protein (E. coli BL21(DE3)pLysS [1]): >1024 µg/mL; MIC of Augmentin for E. coli strain expressing the protein (E. coli BL21(DE3)pLysS [1]): 4 µg/mL; MIC of Rocephine for E. coli strain expressing the protein (E. coli BL21(DE3)pLysS [1]): 512 µg/mL"
"TEM36-GGGGGG-CTXM16: SEQ ID 8; fusion TEM36 and CTXM16 with flexible 6 glycine linker, 532 aa (protein, TEM36-GGGGGG-CTXM16, fusion TEM36 and CTXM16 with flexible 6 glycine linker, 532 aa) HPETLVKVKDAEDQLGARVGYIELDLNSGKILESFRPEERFPMVSTFKVLLCGAVLSRVDAGQEQLGRRIHYSQNDLVEYSPVTEKHLTDGMTVRELCSAAITMSDNTAANLLLTTIGGPKELTAFLHNMGDHVTRLDRWEPELNEAIPNDERDTTMPAAMATTLRKLLTGELLTLASRQQLIDWMEADKVAGPLLRSALPAGWFIADKSGAGERGSRGIIAALGPDGKPSRIVVIYTTGSQATMDERDRQIAEIGASLIKHWGGGGGGQTSAVQQKLAALEKSSGGRLGVALIDTADNTQVLYRGDERFPMCSTSKVMAAAAVLKQSETQKQLLNQPVEIKPADLVNYNPIAEKHVNGTMTLAELSAAALQYSDNTAMNKLIAQLGGPGGVTAFARAIGDETFRLDRTEPTLNTAIPGDPRDTTTPRAMAQTLRQLTLGHALGETQRAQLVTWLKGNTTGAASIRAGLPTSWTAGDKTGSGGYGTTNDIAVIWPQGRAPLVLVTYFTQPQQNAESRRDVLASAARIIAEGL",695 ± 98,890 ± 83,890 ± 176,633 ± 99,42 ± 33,42 ± 14,34 ± 6,24 ± 5,114 ± 44,123 ± 35,141 ± 55,138 ± 32,
"TEM-36: SEQ ID 1; clavulanic acid-resistant class A β-lactamase (IR-TEM, aminopenicillinase), 263 aa; constituent enzyme (protein, listed as Escherichia coli) HPETLVKVKDAEDQLGARVGYIELDLNSGKILESFRPEERFPMVSTFKVLLCGAVLSRVDAGQEQLGRRIHYSQNDLVEYSPVTEKHLTDGMTVRELCSAAITMSDNTAANLLLTTIGGPKELTAFLHNMGDHVTRLDRWEPELNEAIPNDERDTTMPAAMATTLRKLLTGELLTLASRQQLIDWMEADKVAGPLLRSALPAGWFIADKSGAGERGSRGIIAALGPDGKPSRIVVIYTTGSQATMDERDRQIAEIGASLIKHW",816 ± 90,816 ± 90,816 ± 90,3593 ± 87,97 ± 74,97 ± 74,97 ± 74,385 ± 31,0,0,0,1 ± 1,MIC of Amoxicillin for E. coli strain expressing the protein (E. coli BL21(DE3)pLysS [1]): >1024 µg/mL; MIC of Augmentin for E. coli strain expressing the protein (E. coli BL21(DE3)pLysS [1]): 512 µg/mL; MIC of Rocephine for E. coli strain expressing the protein (E. coli BL21(DE3)pLysS [1]): <0.5 µg/mL; MIC of Amoxicillin for E. coli strain expressing the protein (E. coli BL21(DE3)pLysS [2]; [14]): >2048 µg/mL; MIC of Augmentin for E. coli strain expressing the protein (E. coli BL21(DE3)pLysS [2]; [14]): 512 µg/mL
"EreB: SEQ ID 5; erythromycin esterase, P05789.1, 419 aa (protein, listed as Escherichia coli) MRFEEWVKDKHIPFKLNHPDDNYDDFKPLRKIIGDTRVVALGENSHFIKEFFLLRHTLLRFFIEDLGFTTFAFEFGFAEGQIINNWIHGQGTDDEIGRFLKHFYYPEELKTTFLWLREYNKAAKEKITFLGIDIPRNGGSYLPNMEIVHDFFRTADKEALHIIDDAFNIAKKIDYFSTSQAALNLHELTDSEKCRLTSQLARVKVRLEAMAPIHIEKYGIDKYETILHYANGMIYLDYNIQAMSGFISGGGMQGDMGAKDKYMADSVLWHLKNPQSEQKVIVVAHNAHIQKTPILYDGFLSCLPMGQRLKNAIGDDYMSLGITSYSGHTAALYPEVDTKYGFRVDNFQLQEPNEGSVEKAISGCGVTNSFVFFRNIPEDLQSIPNMIRFDSIYMKAELEKAFDGIFQIEKSSVSEVVYE",,,,,,,,,,,,,MIC of Amoxicillin for E. coli strain expressing the protein (E. coli BL21(DE3)pLysS [2]; [14]): <2 µg/mL; MIC of Augmentin for E. coli strain expressing the protein (E. coli BL21(DE3)pLysS [2]; [14]): <2 µg/mL; MIC of Erythromycin for E. coli strain expressing the protein (E. coli BL21(DE3)pLysS [2]; [14]): >1024 µg/mL
